T1: human ANGPTL8 expressed with C-terminal mouse IgG2a Fc tag (hANGPTL8-mFc; SEQ ID NO: 340) (human)
T1 construct: also called Angiopoietin-like protein 8
T1 chain: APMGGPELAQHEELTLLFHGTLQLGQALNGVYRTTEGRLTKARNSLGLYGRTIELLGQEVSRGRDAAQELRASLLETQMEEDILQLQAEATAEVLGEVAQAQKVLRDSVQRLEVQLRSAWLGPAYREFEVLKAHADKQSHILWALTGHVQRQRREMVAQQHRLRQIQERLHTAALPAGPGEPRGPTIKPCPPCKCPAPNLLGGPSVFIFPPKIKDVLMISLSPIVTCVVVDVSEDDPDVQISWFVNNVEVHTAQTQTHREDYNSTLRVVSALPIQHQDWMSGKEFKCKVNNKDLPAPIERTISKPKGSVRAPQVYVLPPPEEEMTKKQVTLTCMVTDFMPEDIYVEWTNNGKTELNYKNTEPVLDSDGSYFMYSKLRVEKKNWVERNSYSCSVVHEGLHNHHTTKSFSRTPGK

T2: monkey ANGPTL8 expressed with C-terminal mouse IgG2a Fc tag (MfANGPTL8-mFc; SEQ ID NO: 341) (cynomolgus monkey)
T2 construct: also called cynomolgus monkey ANGPTL8
T2 chain: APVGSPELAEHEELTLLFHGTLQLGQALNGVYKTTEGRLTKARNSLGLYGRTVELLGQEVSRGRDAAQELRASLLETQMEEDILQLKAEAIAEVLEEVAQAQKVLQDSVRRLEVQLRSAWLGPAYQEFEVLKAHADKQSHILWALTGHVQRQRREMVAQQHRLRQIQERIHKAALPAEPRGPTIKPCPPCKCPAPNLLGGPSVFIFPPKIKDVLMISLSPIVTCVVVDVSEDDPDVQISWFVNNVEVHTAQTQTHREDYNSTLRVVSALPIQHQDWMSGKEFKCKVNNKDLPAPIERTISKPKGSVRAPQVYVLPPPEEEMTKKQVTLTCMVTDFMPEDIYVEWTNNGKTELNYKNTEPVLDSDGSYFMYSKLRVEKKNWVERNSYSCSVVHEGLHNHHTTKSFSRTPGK

T3: peptide from the N-terminal coiled-coil region of human ANGPTL3 (hANGPTL3 peptide, SEQ ID NO: 338) (human)
T3 construct: also called hANGPTL3 shift peptide
T3 peptide: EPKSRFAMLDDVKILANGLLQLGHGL

T4: peptide from the N-terminal coiled-coil region of human ANGPTL4 (hANGPTL4 peptide, SEQ ID NO: 339) (human)
T4 peptide: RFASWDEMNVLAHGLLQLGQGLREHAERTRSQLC

T5: human ANGPTL8 peptide (hANGPTL8 peptide, SEQ ID NO: 337) (human)
T5 construct: also called N-terminal region ANGPTL8 peptide
T5 peptide: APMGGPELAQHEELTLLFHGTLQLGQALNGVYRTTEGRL


How the values were obtained:
[1] = biological target: T1, human ANGPTL8 expressed with C-terminal …; assay: BLI Octet, captured antigen, 100 nM mAb, 25C
[2] = biological target: T1, human ANGPTL8 expressed with C-terminal …; assay: BLI Octet, captured antigen, 100 nM mAb, 25C
[3] = biological target: T2, monkey ANGPTL8 expressed with …; assay: BLI Octet, captured antigen, 100 nM mAb, 25C
[4] = biological target: T3, peptide from the N-terminal coiled-coil …; assay: SPR, captured mAb, 500 nM peptide, 25C
[5] = biological target: T4, peptide from the N-terminal coiled-coil …; assay: SPR, captured mAb, 500 nM peptide, 25C
[6] = biological target: T5, human ANGPTL8 peptide (hANGPTL8 …); assay: SPR, captured mAb, 500 nM peptide, 25C
[7] = biological target: T6, anti-mFc (AMC) Octet biosensor, blank; assay: BLI Octet, blank AMC sensor, 100 nM mAb, 25C
T6 construct: Sensor without captured protein, used as blank; also called Blank AMC Sensor
Summary of the method: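 Antigen-mFc (human or cynomolgus ANGPTL8; hLDLR-mFc as negative control; one blank sensor) captured to ~1.6 nm from 10 μg/mL over 4 min. Sensors dipped 4 min in 100 nM mAb or isotype control at 25° C. Buffer: 10 mM HEPES pH 7.4, 150 mM NaCl, 0.05% Tween-20, 1 mg/ml BSA, shaken at 1000 rpm.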

[8] = biological target: T1, human ANGPTL8 expressed with C-terminal …; assay: SPR MASS-1, antigen-mFc captured, mAb injected, 25C
Procedure: (§1) All binding studies were performed in 10 mM HEPES pH 7.4, 150 mM NaCl, 3 mM EDTA, and 0.05% v/v Surfactant Tween-20 (HBS-ET running buffer) at 25° C. The HCA sensor surface was first derivatized by amine coupling goat anti-mouse IgG2a polyclonal antibody (Southern Biotech, #1080-01) onto which was then captured approximately 30 RU ([…]) of human ANGPTL8 expressed with C-terminal mouse IgG2a Fc tag (hANGPTL8-mFc; SEQ ID NO: 340) or monkey ANGPTL8 expressed with C-terminal mouse IgG2a Fc tag (MfANGPTL8-mFc; SEQ ID NO: 341).
(§2) Kinetic association (kₐ) and dissociation (kd) rate constants were determined by fitting the real-time binding sensorgrams to a 1:1 binding model with mass transport limitation using Scrubber 2.0c curve-fitting software. Binding dissociation equilibrium constants (KD) and dissociative half-lives (t½) were calculated from the kinetic rate constants as: […]

[9] = biological target: T2, monkey ANGPTL8 expressed with …; assay: as above
Procedure: as §1, §2

[10] = biological target: T1, human ANGPTL8 expressed with C-terminal …; assay: SPR MASS-1, antigen-mFc captured, mAb injected, 25C; no dissociation seen, kd fixed at the detection limit
Procedure: as §1, §2
(§3) To obtain an estimate of the binding affinity the dissociation rate constant, kd, was fixed at the upper detection limit under the experimental conditions, 1.0E-05 1/s.

[11] = biological target: T2, monkey ANGPTL8 expressed with …; assay: as above
Procedure: as §1, §2, §3

Binder	binding result [1]	mAb Binding Response (nm) [2] [nm]	mAb Binding Response (nm) [3] [nm]	500 nM hANGPTL3 peptide Bound (RU) [4] [RU]	binding result [4]	500 nM hAngPTL4 peptide Bound (RU) [5] [RU]	binding result [5]	500 nM hANGPTL8 peptide Bound (RU) [6] [RU]	binding result [6]	mAb Binding Response (nm) [7] [nm]	Kd [8] [nM]	kon [8] [M⁻¹ s⁻¹]	t½ [8] [h]	Kd [9] [nM]	kon [9] [M⁻¹ s⁻¹]	t½ [9] [h]	koff [10] [s⁻¹]	koff [11] [s⁻¹]
H4H15316P (antibody, human IgG4, V domains shown, H4H prefix: human IgG4 Fc) VH: EVQLVESGGGLVQPGRSLRLSCAASGFIFDDYDMHWVRQAPGKGLEWVSGISWNSGSKGYADSVKGRFTISRDNAKNSLYLQMNSLRAEDTALYYCTKGPWDYFDYWGQGTLVTVSS VL: not shown	no binding (tested: 100 nM mAb; background 0.03 nm)	0.03	0.02	0	no binding (tested: <9 RU at 500 nM peptide)	0	no binding (tested: <9 RU at 500 nM peptide)	0	no binding (tested: <9 RU at 500 nM peptide)	0.02	–	–	–	–	–	–	–	–
H4H15341P (antibody, human IgG4, V domains shown, H4H prefix: human IgG4 Fc) VH: EVQLVESGGGLVQPGGSLRLSCAASGFTFNNHEMNWVRQAPGKGLEWVSYISSSGNTVTYADFLKGRFTISRDNAKNSLFLQMNSLRDEDTAVYYCARDHLSGTSPLSYWGQGTLVTVSS VL: DIQMTQSPSSLSASVGDRVTITCQASQDINNYLNWFQQKPGKAPKLLIFDASNLETGVPSRFSGSGSGTDFTFTISSLQPEDIATYFCQQYENLPYTFGQGTKLEIK	–	0.12	0.1	0	no binding (tested: <9 RU at 500 nM peptide)	0	no binding (tested: <9 RU at 500 nM peptide)	0	no binding (tested: <9 RU at 500 nM peptide)	0.03	≤ 0.117	85000	≥ 19.2	≤ 0.086	116000	≥ 19.2	≤ 1e-05	≤ 1e-05
